Experimental data published in article PMC10412687.

Columns and labels:
[1] = biological target: RNase E C-terminal domain (residues 451-898) with C-terminal eYFP (Caulobacter crescentus); experiment: partitioning of a fluorescent client into condensates (fluorescence microscopy), peptide competition; PNPase incubated with peptide (GWW or scrambled, 0 to 200 µM) before adding RNase E to form droplets; 20 mM Tris pH 7.5, 1 mM MgCl2, 10 mM Na2HPO4 pH 7.5, 100 mM NaCl (120 mM NaCl in Fig. S2), 10% PEG 8000 (Figs. S2, S3)
[2] = biological target: RNase E C-terminal domain (residues 451-898) with C-terminal eYFP (Caulobacter crescentus); experiment: partitioning of a fluorescent client into condensates (fluorescence microscopy); RNase E CTD condensates as scaffold, PNPase-mCherry variants as clients; 20 mM Tris pH 7.5, 20 mM MgCl2, 4 mM Na2HPO4 pH 7.5, 70 mM NaCl, 0.5 mM DTT; 30 min at room temperature; partitioning ratio (Fig. 3)
[3] = biological target: RNase E C-terminal domain (residues 451-898) with C-terminal eYFP (Caulobacter crescentus); experiment: partitioning of a fluorescent client into condensates (fluorescence microscopy); 20 µM RNase E CTD-eYFP (or ∆PNP-BS) condensates as scaffold, mCherry-labelled client; 20 mM Tris pH 7.5, 1 mM MgCl2, 10 mM Na2HPO4 pH 7.5, 100 mM NaCl, 10% PEG 8000; 30 min at room temperature; partitioning ratio = mean droplet signal / mean non-droplet signal (Figs. 2, S1)

Molecule: PNPase-mCherry as used in the peptide competition and poly(A) recruitment microscopy (from UniProt Q9AC32 1-712) (enzyme)
- partitioning ratio (without peptide) [1]: 2.8
- partitioning ratio with 100 µM GWW peptide [1]: 1.7

B1: PNPase-S439A/S440A/S441A-mCherry (PNPase active site mutant) (enzyme)
chain: MFDIKRKTIEWGGKTLVLETGRIARQADGAVLATMGETVVLATAVFAKSQKPGQDFFPLTVNYQEKTFAAGKIPGGFFKREGRPSEKETLVSRLIDRPIRPLFVKGFKNEVQVVVTVLQHDLENDPDILGMVAASAALCLSGAPFMGPIGAARVGWVDGAYVLNPTLDEMKESKMDLVVAGTADAVMMVESEIQELSEEIVLGGVNFAHQQMQAVIDAIIDLAEHAAKEPFAFEPEDTDAIKAKMKDLVGADIAAAYKIQKKQDRYEAVGAAKKKAIAALGLSDENPTGYDPLKLGAIFKELEADVVRRGILDTGLRIDGRDVKTVRPILGEVGILPRTHGSALFTRGETQAIVVATLGTGDDEQFIDALEGTYKESFLLHYNFPPYSVGETGRMGSPGRREIGHGKLAWRALRPMLPTKEDFPYTIRLVSEITESNGAAAMATVCGSSLAMMDAGVPLVRPVSGIAMGLILEQDGFAVLSDILGDEDHLGDMDFKVAGTSEGLTSLQMDIKIAGITPAIMEQALAQAKEGRAHILGEMNKAMDAPRADVGDFAPKIETINIPTDKIREVIGSGGKVIREIVATTGAKVDINDDGVVKVSASDGAKIKAAIDWIKSITDEAEVGKIYDGKVVKVVDFGAFVNFFGAKDGLVHVSQISNERVAKPSDVLKEGQMVKVKLLGFDDRGKTKLSMKVVDQETGEDLSKKEAAAEEA
- partitioning ratio [2]: 4.4
- partitioning ratio [3]: 5.7

B2: PNPase-V104A/E224A/F233A-mCherry (enzyme)
chain: MFDIKRKTIEWGGKTLVLETGRIARQADGAVLATMGETVVLATAVFAKSQKPGQDFFPLTVNYQEKTFAAGKIPGGFFKREGRPSEKETLVSRLIDRPIRPLFAKGFKNEVQVVVTVLQHDLENDPDILGMVAASAALCLSGAPFMGPIGAARVGWVDGAYVLNPTLDEMKESKMDLVVAGTADAVMMVESEIQELSEEIVLGGVNFAHQQMQAVIDAIIDLAAHAAKEPFAAEPEDTDAIKAKMKDLVGADIAAAYKIQKKQDRYEAVGAAKKKAIAALGLSDENPTGYDPLKLGAIFKELEADVVRRGILDTGLRIDGRDVKTVRPILGEVGILPRTHGSALFTRGETQAIVVATLGTGDDEQFIDALEGTYKESFLLHYNFPPYSVGETGRMGSPGRREIGHGKLAWRALRPMLPTKEDFPYTIRLVSEITESNGSSSMATVCGSSLAMMDAGVPLVRPVSGIAMGLILEQDGFAVLSDILGDEDHLGDMDFKVAGTSEGLTSLQMDIKIAGITPAIMEQALAQAKEGRAHILGEMNKAMDAPRADVGDFAPKIETINIPTDKIREVIGSGGKVIREIVATTGAKVDINDDGVVKVSASDGAKIKAAIDWIKSITDEAEVGKIYDGKVVKVVDFGAFVNFFGAKDGLVHVSQISNERVAKPSDVLKEGQMVKVKLLGFDDRGKTKLSMKVVDQETGEDLSKKEAAAEEA
- partitioning ratio [2]: 1
